The values below come from PMC3813961 (Biochemistry, 2013).

As usually defined, the stoichiometry N is a count of units in the complex or per binding partner.

In data set [1] the target is EL222 L120K variant (Erythrobacter litoralis HTCC2594). The data set can be described thus: SEC-MALS.
Data set [2] addresses EL222 V41I:L52I:A79Q:V121I variant (AQTrip) (Erythrobacter litoralis HTCC2594). The data set can be described thus: SEC-MALS. A general note: SEC sorts molecules by how far they enter the pores of the column.
Data set [3] has the same target. The data set can be described thus: SEC-MALS. The source holds these as a separate data set.
The target is the same in data set [4]. Put plainly: SEC-MALS. This is another data set of the same source.
The target of data set [5] is EL222 S137Y variant (Erythrobacter litoralis HTCC2594). The data set can be described thus: SEC-MALS.
Data set [6] deals with the molecule itself. The data set can be described thus: native gel or EMSA. Background: Mobility shift assays separate free from complexed probe on a gel.

Where two headings read alike, the source gives them in different places.

As to EL222 L120K variant (natural protein), the stoichiometry N in data set [1] turned out to be 2.

Take “EL222 V41I:L52I:A79Q:V121I variant (AQTrip) (natural protein)”: the stoichiometry N in data set [2] is 4; in data set [3] it was 2; in data set [4] it was 2.

EL222 S137Y variant (natural protein) showed a stoichiometry N in data set [5] of 2.

B1: His6-Gβ1-tagged wild-type EL222 (natural protein, Erythrobacter litoralis HTCC2594, UniProt Q2NB98 1-225, looked up)
chain: MLDMGQDRPIDGSGAPGADDTRVEVQPPAQWVLDLIEASPIASVVSDPRLADNPLIAINQAFTDLTGYSEEECVGRNCRFLAGSGTEPWLTDKIRQGVREHKPVLVEILNYKKDGTPFRNAVLVAPIYDDDDELLYFLGSQVEVDDDQPNMGMARRERAAEMLKTLSPRQLEVTTLVASGLRNKEVAARLGLSEKTVKMHRGLVMEKLNLKTSADLVRIAVEAGI
On to B1, for which the “stoichiometry N” value in data set [6] is 2.
